Laboratory results published in patent US20250326840A1 (QURE BIOTECHNOLOGY SHANGHAI, published 2025).
Substitutions are numbered along the chain they refer to. Numbers in names are those of the source.

T1: QP533 (SIRPαV4-mFC(mIgG2a)) (human, limits assumed)
T1 construct: also called human SIRPα V4 recombinant protein (QP533)
T1 chain: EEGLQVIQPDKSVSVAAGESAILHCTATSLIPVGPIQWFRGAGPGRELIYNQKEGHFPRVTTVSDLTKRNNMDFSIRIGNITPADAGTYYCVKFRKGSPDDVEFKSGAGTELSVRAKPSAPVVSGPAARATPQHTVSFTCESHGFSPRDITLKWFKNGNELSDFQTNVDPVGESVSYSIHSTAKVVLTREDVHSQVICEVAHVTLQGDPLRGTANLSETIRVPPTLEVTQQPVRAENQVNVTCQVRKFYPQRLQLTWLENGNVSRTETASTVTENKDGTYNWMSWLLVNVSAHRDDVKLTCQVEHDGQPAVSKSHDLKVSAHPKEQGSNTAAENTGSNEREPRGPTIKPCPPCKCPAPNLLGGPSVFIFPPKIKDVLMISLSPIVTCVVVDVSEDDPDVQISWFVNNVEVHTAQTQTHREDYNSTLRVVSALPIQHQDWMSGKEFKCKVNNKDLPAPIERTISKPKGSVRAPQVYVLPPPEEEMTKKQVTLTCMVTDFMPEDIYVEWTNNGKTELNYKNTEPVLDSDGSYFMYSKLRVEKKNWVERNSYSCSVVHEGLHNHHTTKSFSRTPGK

T2: QP534 (SIRPαV5-mFC(mIgG2a)) (human, limits assumed)
T2 construct: also called human SIRPα V5 recombinant protein (QP534)
T2 chain: T1 chain with G3E, S12F, S14L, S20T, I22T, H24R

T3: SIRPα V5 fusion Fc (mouse IgG2a) (human, limits assumed)
T3 chain: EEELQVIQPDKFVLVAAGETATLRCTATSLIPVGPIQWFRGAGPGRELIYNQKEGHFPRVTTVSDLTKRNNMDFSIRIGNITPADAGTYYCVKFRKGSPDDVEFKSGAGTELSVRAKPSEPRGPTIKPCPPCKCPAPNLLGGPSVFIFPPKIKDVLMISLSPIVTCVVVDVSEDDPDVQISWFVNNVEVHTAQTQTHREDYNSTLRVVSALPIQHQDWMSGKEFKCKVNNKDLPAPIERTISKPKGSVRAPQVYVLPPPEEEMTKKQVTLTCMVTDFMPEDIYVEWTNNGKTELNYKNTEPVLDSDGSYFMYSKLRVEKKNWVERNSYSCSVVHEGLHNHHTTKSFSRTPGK

T4: SIRPα V4 fusion Fc (mouse IgG2a) (human, limits assumed)
T4 chain: T3 chain with E3G, F12S, L14S, T20S, T22I, R24H

T5: SIRPα V1 fusion Fc (mouse IgG2a) (human, limits assumed)
T5 chain: T3 chain with F12S

B1: QP37503751 (1H9 analog) (antibody, human IgG1, kappa, N297A, V domains shown)
VH: QVQLVQSGAEVKKPGASVKVSCKASGYTFTSYWITWVKQAPGQGLEWIGDIYPGSGSTNHIEKFKSKATLTVDTSISTAYMELSRLRSDDTAVYYCATGYGSSYGYFDYWGQGTLVTVSS
VL: DIQMTQSPSSLSASVGDRVTITCRASENIYSYLAWYQQKPGKAPKLLIYTAKTLAEGVPSRFSGSGSGTDFTLTISSLQPEDFATYYCQHQYGPPFTFGQGTKLEIKR
notes: also called hz1H9 hIgG1(N297A)
B2: QP32700279 (antibody, human IgG1, kappa, L234A L235A, V domains shown)
VH: QVQLVQSGAEVKKPGASVKVSCKASGYTFTNYWINWVRQAPGQGLEWIAMIDPSDSETHYNQIFKDRATLTTDTSTSTAYMELRSLRSDDTAVYYCAMDYGSLYAMDYWGRGTLVTVSS
VL: DIVLTQSPDSLAVSLGERATINCRASQSVRSSGYNWIFWYQQKPGQPPKLLIYLASNRDSGVPDRFSGSGSGTDFTLTISSLQAEDVAVYYCQHSRELPTFGQGTKLEIKR
notes: also called SIRPα monoclonal antibody CHO71
B3: QP026249 (KWAR23 analog) (antibody, human IgG4 S228P, kappa)
heavy: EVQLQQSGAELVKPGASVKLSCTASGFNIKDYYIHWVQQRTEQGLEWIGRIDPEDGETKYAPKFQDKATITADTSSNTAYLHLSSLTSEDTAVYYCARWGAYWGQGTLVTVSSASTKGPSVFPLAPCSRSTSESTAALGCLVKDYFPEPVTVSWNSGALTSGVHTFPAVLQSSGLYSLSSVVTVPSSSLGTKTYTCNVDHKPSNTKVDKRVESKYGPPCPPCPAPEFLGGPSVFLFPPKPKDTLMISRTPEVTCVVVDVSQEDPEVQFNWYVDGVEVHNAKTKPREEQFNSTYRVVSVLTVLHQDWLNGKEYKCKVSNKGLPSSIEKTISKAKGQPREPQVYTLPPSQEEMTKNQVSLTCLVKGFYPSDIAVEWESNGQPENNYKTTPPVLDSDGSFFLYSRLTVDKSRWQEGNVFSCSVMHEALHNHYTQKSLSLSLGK
light: QIVLTQSPAIMSASPGEKVTLTCSASSSVSSSYLYWYQQKPGSSPKLWIYSTSNLASGVPARFSGSGSGTSYSLTISSMEAEDAASYFCHQWSSYPRTFGAGTKLELKRTVAAPSVFIFPPSDEQLKSGTASVVCLLNNFYPREAKVQWKVDNALQSGNSQESVTEQDSKDSTYSLSSTLTLSKADYEKHKVYACEVTHQGLSSPVTKSFNRGEC
notes: also called KAWA23 analog; control antibody KWAR23 (QP026249), human IgG4
B4: QP250251 (18D5 analog) (antibody, human IgG4 S228P, kappa, V domains shown)
VH: QVQLQQPGAELVRPGSSVKLSCKASGYTFTSYWVHWVKQRPIQGLEWIGNIDPSDSDTHYNQKFKDKASLTVDKSSSTAYMQLSSLTFEDSAVYYCVRGGTGTMAWFAYWGQGTLVTVSA
VL: DVVMTQTPLSLPVSLGDQASISCRSSQSLVHSYGNTYLYWYLQKPGQSPKLLIYRVSNRFSGVPDRFSGSGSGTDFTLKISRVEAEDLGVYFCFQGTHVPYTFGSGTKLEIKR
notes: also called SIRPα antibody 18D5 from OSE
B5: QP256279 (antibody, human IgG4, V domains shown)
VH: B2 VH
VL: DIVLTQSPDSLAVSLGERATINCRASQSVRSSGYNWIFWYQQKPGQPPKLLIYLASNRDSGVPDRFSGSGSGTDFTLTISSLQAEDVAVYYCQHSRELPTFGQGTKLEIK
notes: Human IgG4 heavy constant region and kappa CL

Molecular target: T1, QP533 (SIRPαV4-mFC(mIgG2a))
Experiment: ELISA, human SIRPα V4 recombinant protein (QP533) coated, HRP anti-human Fc detection

Row | Binder | EC50 [pM]
1 | B1 | 169
2 | B2 | 151
3 | B3 | 439
4 | B4 | 540

Molecular target: T2, QP534 (SIRPαV5-mFC(mIgG2a))
Experiment: ELISA, human SIRPα V5 recombinant protein (QP534) coated, HRP anti-human Fc detection

Row | Binder | EC50 [pM]
5 | B1 | 167
6 | B2 | 150
7 | B3 | 418
8 | B4 | 438

Molecular target: T6, QP536 (SIRPαV7-mFC(mIgG2a)) (human)
T6 construct: also called human SIRPα V7 recombinant protein (QP536)
Experiment: ELISA, human SIRPα V7 recombinant protein (QP536) coated, HRP anti-human Fc detection

Row | Binder | EC50 [pM]
9 | B1 | 247
10 | B2 | 176
11 | B3 | 376

Molecular target: T7, QP532 (SIRPαV3-mFC(mIgG2a)) (human)
T7 construct: also called human SIRPα V3 recombinant protein (QP532)
Experiment: ELISA, human SIRPα V3 recombinant protein (QP532) coated, HRP anti-human Fc detection

Row | Binder | EC50 [pM]
12 | B1 | 310
13 | B2 | 144
14 | B3 | 433

Molecular target: T3, SIRPα V5 fusion Fc (mouse IgG2a)
Experiment: ELISA, SIRPα V5-mouse IgG2a Fc coated, anti-hFab detection; unit from the x axis Log(Conc.(nM))

Row | Binder | EC50 [pM]
15 | B5 | 69.1
16 | B3 | 144
17 | B4 | 130

Molecular target: T4, SIRPα V4 fusion Fc (mouse IgG2a)
Experiment: ELISA, SIRPα V4-mouse IgG2a Fc coated, anti-hFab detection; unit from the x axis Log(Conc.(nM))

Row | Binder | EC50 [pM]
18 | B5 | 57.4
19 | B3 | 115
20 | B4 | 125

Molecular target: T5, SIRPα V1 fusion Fc (mouse IgG2a)
Experiment: ELISA, SIRPα V1-mouse IgG2a Fc coated, anti-hFab detection; unit from the x axis Log(Conc.(nM))

Row | Binder | EC50 [pM]
21 | B5 | 78.6
22 | B3 | 160
23 | B4 | 154
